According to patent US20190367592A1 (AC IMMUNE, published 2019):
Where no end group is shown, it is not given here.

T1: MAPT(2-34) (human, biotinylated)
T1 construct: also called Tau fragment 2-34
T1 peptide: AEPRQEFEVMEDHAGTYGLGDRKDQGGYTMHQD

T2: MAPT(2-24) (human, biotinylated)
T2 construct: also called Tau fragment 2-24
T2 peptide: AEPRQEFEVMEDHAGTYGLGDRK

T3: MAPT(10-24) (human, also: biotinylated, site not given here)
T3 construct: also called Tau fragment 10-24
T3 peptide: VMEDHAGTYGLGDRK


Tests used:
[1] = biological target: T4, recombinant human Tau monomer, 2N4R isoform (amino acids 2-441) (human, UniProt P10636-8 2-441); experiment: SPR, captured IgG, Tau monomer analyte, 1:1 model; fit-quality column: Yes
T4 construct: range 2-441; N-terminal His-tag removed with TEV protease; also called monomeric Tau
Procedure, shortened: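 Affinities were derived by 1:1 fitting of multi-cycle SPR kinetics, with captured antibody and Tau monomer flowed at 0, 26.5 and 265 nM in HBSP pH7.4 at 25° C. Stability Index was Normalized Rmax (Rmax/Ligand Level) post-stress divided by that pre-stress.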
Target sequence in this assay (P10636 other isoform, or with tags, fused parts or gaps limits assumed): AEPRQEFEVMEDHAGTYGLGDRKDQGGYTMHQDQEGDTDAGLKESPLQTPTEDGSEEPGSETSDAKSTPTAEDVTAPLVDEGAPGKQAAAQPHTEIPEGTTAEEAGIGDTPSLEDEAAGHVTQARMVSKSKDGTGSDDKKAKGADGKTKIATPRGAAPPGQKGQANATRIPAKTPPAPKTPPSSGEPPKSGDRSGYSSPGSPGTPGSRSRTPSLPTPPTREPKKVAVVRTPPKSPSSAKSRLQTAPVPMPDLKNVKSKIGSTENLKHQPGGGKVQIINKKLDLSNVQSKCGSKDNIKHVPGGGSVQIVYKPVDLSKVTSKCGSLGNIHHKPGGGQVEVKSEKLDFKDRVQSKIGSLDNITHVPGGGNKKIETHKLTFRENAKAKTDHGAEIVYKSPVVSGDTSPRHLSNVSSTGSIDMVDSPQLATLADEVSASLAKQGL

[2] = biological target: T4, recombinant human Tau monomer, 2N4R …; experiment: SPR, hIgG captured, Tau monomer analyte; mean of four
Description: Affinity was assessed at 25° C. using a Biacore T200 instrument, the GE Biacore human IgG capture kit and a CM5 Series S chip. The hIgG were diluted to 2 μg/ml in 10 mM HEPES pH7.4, 150 mM NaCl, 0.05% Tween 20 (running buffer, HBSP) and captured at a flow rate of 10 μl/min for 22 seconds. […] Between cycles the surface was regenerated using a 30 second injection of 3M Magnesium Chloride at 10 μl/min. A 1:1 binding model was fitted to the data and affinities for hu37D3-H9.v5 and hu37D3-H9.v5.3 (also referred to herein as hu37D3-H9.v5 N28D) calculated using kinetic analysis. Parameters used for the 1:1 fitting included the Instrument default of local fitting for the “RI” parameter.

[3] = biological target: T1, MAPT(2-34); experiment: ELISA, biotinylated peptide on Neutravidin plate, IgG titrated, A450 nm
Description: (§1) Following a comparison of 37D3-H9 binding to biotinylated Tau monomer and biotinylated peptide (MAPT_10-24), binding of 37D3-H9 to additional biotinylated peptides was also assessed. Nunc maxisorp 96-well microplates were coated at 4° C. for >12 hours with Neutravidin diluted to 2 μg/ml in 50 mM Sodium Carbonate Buffer, pH 9.6. All subsequent incubations were performed at room temperature. After coating, plates were blocked with Superblock™ (PBS) Blocking Buffer (Thermo Fisher Scientific) for two hours then washed thoroughly with PBS, 0.05% Polysorbate 20. Wells were then exposed to biotinylated Tau peptides (Table 20) or Avi-tag biotinylated Tau monomer at 1 μg/ml for one hour and washed as previously. Peptides were synthesized using standard solid-phase Fmoc chemistry (see, e.g., Fmoc solid phase peptide synthesis: A practical approach; Chan, W. C., White, P. D., Eds.; Oxford University Press: New York, 2000). Antibodies 37D3-H9 mIgG2a and hu37D3-H9.v5 hIgG1, serially diluted from 500 nM to 50 pM in 90% Superblock™ (PBS) Blocking Buffer, were allowed to bind biotinylated-Tau coated wells for 90 minutes. Wells were washed as previously and bound antibody detected with peroxidase-conjugated secondary antibody (Invitrogen/Life Technologies) diluted 1/1000 in Superblock™ Blocking Buffer (Rabbit anti-Mouse IgG or Goat Anti-Human IgG (H+L) respectively). After twenty minutes wells were washed as previously and signal developed with TMB Microwell 2-Component Substrate (KPL). Reactions were stopped by addition of 1M Phosphoric Acid and absorbance at 450 nm was measured with a SpectraMax M2 platereader.

[4] = biological target: T2, MAPT(2-24); experiment: as above
Description: as §1

[5] = biological target: T3, MAPT(10-24); experiment: as above
Description: as §1

[6] = biological target: T4, recombinant human Tau monomer, 2N4R …; experiment: SPR, hIgG captured, Tau monomer analyte, 1:1 fit
Description: Affinity of selected antibodies was assessed at 25° C. using a Biacore T200 instrument, the GE Biacore human IgG capture kit and a CM5 Series S chip. The hIgG were diluted to 0.25 μg/ml in 10 mM HEPES pH7.4, 150 mM NaCl, 0.05% Tween 20 (running buffer, HBSP) and captured at a flow rate of 10 μl/min for 150 seconds. Kinetic data was collected for Human Tau monomer injected at concentrations of 0, 0.4, 1.2, 3.7, 11, 11, 33 and 100 nM in HBSP, using a flow rate of 30 μl/min, a 300 second association phase and a 600 second dissociation phase. Between cycles the surface was regenerated using two sequential 30 second injections of 3M MgCl at 10 μl/min. Data was fit to a 1:1 binding model (Table 15).

[7] = biological target: T4, recombinant human Tau monomer, 2N4R …; experiment: SPR, hIgG captured, Tau monomer analyte; control sample
[8] = biological target: T4, recombinant human Tau monomer, 2N4R …; experiment: SPR, hIgG captured, Tau monomer analyte; unstressed sample
Description: To assess the impact of N²⁸ deamidation on the affinity for human Tau, it was desirable to obtain two samples with widely separated N²⁸ deamidation status. Hu37D3-H9.v5 hIgG4.S228P was incubated at 40° C. for two weeks at a concentration of 1 mg/ml in Phosphate Buffered Saline, pH 7.4. Deamidation of the N²⁸G2⁹ motif was measured using LC-MS/MS. […] The stressed and unstressed antibodies were analyzed for Tau binding by surface plasmon resonance (Biacore) using the GE Biacore human IgG capture kit and a Series S CM5 chip. The hIgG were diluted to 2 μg/ml in 10 mM HEPES pH7.4, 150 mM NaCl, 0.05% Tween 20 (running buffer, HBSP) and captured at a flow rate of 10 μl/min for 15 seconds (t0 sample) or 17 seconds (t2 sample). […] Between cycles the surface was regenerated using a 30 second injection of 3M Magnesium Chloride at 10 μl/min. A 1:1 binding model was fitted to the data using instrument defaults, including local fitting of the “RI” parameter.

[9] = biological target: T4, recombinant human Tau monomer, 2N4R …; experiment: SPR, hIgG captured, Tau monomer analyte; stressed sample
[10] = biological target: T4, recombinant human Tau monomer, 2N4R …; experiment: SPR single-cycle, Tau monomer amine-coupled, Fab analyte; Fab, not IgG; Tau monomer on the chip
Description: Human monomer Tau protein was covalently coupled to a Biacore Series S CM5 chip using the Biacore Amine Coupling Kit (GE Life Sciences), resulting in immobilization to a level of approximately 128 RU. Direct binding of 37D3-H9 in both Fab and IgG formats was monitored using the single-cycle kinetics experimental format with five association periods of 300s each and antibody concentrations of 1, 2, 4, 8 and 16 nM (IgG) or 5, 10, 20, 40 and 80 nM (Fab). Dissociation was monitored for 7200 seconds (Fab) or for 14400 seconds (IgG). A value for the dissociation rate was calculated by fitting a 1:1 binding model to the data.

| Kd [1] [nM] | Kd [2] [nM] | binding result [3] | binding result [4] | binding result [5] | Kd [6] [nM] | koff [6] [s⁻¹] | kon [6] [M⁻¹ s⁻¹] | Kd [7] [nM] | Kd [8] [nM] | Kd [9] [nM] | koff [10] [s⁻¹] | Binder |
| --- | --- | --- | --- | --- | --- | --- | --- | --- | --- | --- | --- | --- |
| 1 | 1.5 | binds | binds | binds | 1 | 0.0008 | 750000 | – | – | – | – | hu37D3-H9.v5 hIgG1 (antibody, V domains shown, human IgG1, kappa) VH: EVQLVESGGGLVQPGGSLRLSCAASGLIFRSYGMSWVRQAPGKGLEWVATINSGGTYTYYPDSVKGRFTISRDNSKNTLYLQMNSLRAEDTAVYYCANSYSGAMDYWGQGTLVTVSS VL: EDVLTQTPLSLPVTPGQPASISCRSSQSIVHSNGNTYFEWYLQKPGQSPQLLIYKVSNRFSGVPDRFSGSGSGTDFTLKISRVEAEDVGVYYCFQGSLVPWTFGQGTKVEIK |
| – | – | – | – | – | 1.3 | 0.0009 | 710000 | 1.5 | 0.7 | 1.5 | – | hu37D3-H9.v5 hIgG4.S228P (antibody, V domains shown, human IgG4 S228P, kappa; the t = 2 weeks sample is partly deamidated at light chain N28) VH: EVQLVESGGGLVQPGGSLRLSCAASGLIFRSYGMSWVRQAPGKGLEWVATINSGGTYTYYPDSVKGRFTISRDNSKNTLYLQMNSLRAEDTAVYYCANSYSGAMDYWGQGTLVTVSS VL: EDVLTQTPLSLPVTPGQPASISCRSSQSIVHSNGNTYFEWYLQKPGQSPQLLIYKVSNRFSGVPDRFSGSGSGTDFTLKISRVEAEDVGVYYCFQGSLVPWTFGQGTKVEIK |
| – | – | – | – | – | – | – | – | – | – | – | 0.0005 | 37D3-H9 Fab (Fab, V domains shown, Fab format) VH: EVQLVESGGDLAKPGGSLKLSCTASGLIFRSYGMSWVRQTPDKRLEWVATINSGGTYTYYPDSVKGRFTISRDNAKNTLYLQMSSLKSEDTAMYYCANSYSGAMDYWGQGTSVTVSS VL: DDLLTQTPLSLPVSLGDPASISCRSSQSIVHSNGNTYFEWYLQKPGQSPKLLIYKVSNRFSGVPDRFSGSGSGTDFTLKISRVEAEDLGVYYCFQGSLVPWTFGGGTKLEIK |
